The source of these data is patent publication US20070128672A1 (ST VINCENT S HOSPITAL SYDNEY, published 2007).

First the molecules themselves.
B1: Fab clone 163.1 (Fab, V domains shown)
VH: VQLLEQSGAEMKRPGASVTISCQASRQTFSGQYIHWVRQAPGQGLEWMGVINPSGGSANYAPSFQGRLSMSRDASTNTVYMKLSSLTSEDTAVYYCLSQALKYWGQGTLVAVSS
VL: AAELTQSPDSLAVSLGERATINCKSNQSVLYNSNSKNYLAWYQQKPGQPPKLLIYWASTRESGVPDRFSGSGSGTDFTLTITSLQAEDVAVYYCQQYFSSPYTFGQGTKLEIK
notes: myc tag on the C terminus of the heavy chain
B2: Fab clone 163.5 (Fab, V domains shown)
VH: VQLLEQSGAEVKRPGASVTISCQASRQDFSGQYIHWVRQAPGQGFEWMGIINPSGGSANYAPKFKGRLTMSRDSSTDTVYMTLTSLTSEDTAVYYCLLQALKHWGQGTLVAVSS
VL: AAELTQSPDSLAVALGERATINCKSSQSVLYSLNNKNYLAWYQQKPGQPPKLLIHWASTRESGVPDRFSGSGSETDFTLTISSLQAEDVAVYYCQQYYTTPYTFGQGTKLEIK
B3: Fab clone 163.17 (Fab, V domains shown)
VH: VQLLEQSGAEVKRPGASVTISCRASRQDFSGQYIHWVRQAPGQGFEWMGIINPSGGSANYAPKFKGRLTMSRDSSTETVYMTLTSLTSEDTAVYYCLLQALKHWGQGTLVGPSS
VL: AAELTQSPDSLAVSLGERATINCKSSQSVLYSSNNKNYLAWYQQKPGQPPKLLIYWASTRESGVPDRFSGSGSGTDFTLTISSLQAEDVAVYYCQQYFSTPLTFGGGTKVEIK
notes: Human IgG1 kappa Fab (MCO1 vector, soluble from E. coli HB2151), myc tag on the C terminus of the heavy chain
B4: Fab clone 163.24 (Fab, V domains shown)
VH: VQLLEQSGAEVKRPGASVTISCQASRQNFSGQYIHWVRQAPGQGLEWMGIINPSGGSANYAPRFKGRLSMSRDSSTDTAYLTLTSLTSEDTAVYFCLLQSLKHWGQGTLVAVSS
VL: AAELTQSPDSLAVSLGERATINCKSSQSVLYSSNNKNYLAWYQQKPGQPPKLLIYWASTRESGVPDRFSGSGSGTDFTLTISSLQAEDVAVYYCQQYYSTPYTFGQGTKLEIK
notes: as for B3

For this assay, the target named is tetanus toxoid (UniProt P04958 2-1315). Nature of the assay: ELISA, crude Fab supernatant, detected with 9E10. (In general: ELISA stands for enzyme-linked immunosorbent assay.)
Chain of tetanus toxoid (P04958 2-457 limits assumed, chain 1 of 2): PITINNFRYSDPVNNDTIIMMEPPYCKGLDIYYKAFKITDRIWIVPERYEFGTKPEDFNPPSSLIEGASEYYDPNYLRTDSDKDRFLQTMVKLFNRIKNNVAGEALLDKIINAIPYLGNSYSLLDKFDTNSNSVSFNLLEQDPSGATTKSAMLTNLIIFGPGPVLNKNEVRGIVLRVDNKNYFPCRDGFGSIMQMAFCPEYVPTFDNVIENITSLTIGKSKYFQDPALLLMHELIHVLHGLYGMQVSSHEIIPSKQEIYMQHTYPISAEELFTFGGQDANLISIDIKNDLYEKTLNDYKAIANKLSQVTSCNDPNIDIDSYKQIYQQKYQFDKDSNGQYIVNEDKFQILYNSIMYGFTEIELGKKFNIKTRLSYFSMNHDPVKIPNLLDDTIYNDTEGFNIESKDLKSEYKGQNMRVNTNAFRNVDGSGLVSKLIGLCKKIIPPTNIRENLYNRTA
Chain of tetanus toxoid (P04958 458-1315 limits assumed, chain 2 of 2): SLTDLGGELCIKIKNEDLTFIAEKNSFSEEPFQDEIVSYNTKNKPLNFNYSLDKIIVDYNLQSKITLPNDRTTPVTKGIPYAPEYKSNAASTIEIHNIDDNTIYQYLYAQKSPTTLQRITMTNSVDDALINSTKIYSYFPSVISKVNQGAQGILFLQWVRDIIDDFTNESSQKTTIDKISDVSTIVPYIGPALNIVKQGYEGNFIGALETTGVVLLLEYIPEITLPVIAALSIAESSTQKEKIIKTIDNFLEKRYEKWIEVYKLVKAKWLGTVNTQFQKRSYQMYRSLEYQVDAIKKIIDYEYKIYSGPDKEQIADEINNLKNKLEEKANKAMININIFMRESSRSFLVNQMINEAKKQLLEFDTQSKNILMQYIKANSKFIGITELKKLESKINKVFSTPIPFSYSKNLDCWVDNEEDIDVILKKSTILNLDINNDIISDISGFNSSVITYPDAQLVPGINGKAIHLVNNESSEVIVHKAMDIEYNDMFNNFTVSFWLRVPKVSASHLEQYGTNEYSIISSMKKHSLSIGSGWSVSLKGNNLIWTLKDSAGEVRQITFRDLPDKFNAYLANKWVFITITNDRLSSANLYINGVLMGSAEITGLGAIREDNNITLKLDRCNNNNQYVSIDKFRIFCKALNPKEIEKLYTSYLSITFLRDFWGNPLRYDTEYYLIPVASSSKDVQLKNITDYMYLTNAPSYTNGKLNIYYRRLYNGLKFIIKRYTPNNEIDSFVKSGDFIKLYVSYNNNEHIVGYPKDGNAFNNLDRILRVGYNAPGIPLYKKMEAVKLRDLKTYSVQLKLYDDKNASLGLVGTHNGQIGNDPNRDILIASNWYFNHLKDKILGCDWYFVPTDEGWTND
As to B1, the binding result is given as “no binding (tested: antigen coated at 1 µg/ml)”. Consider B2, for which the binding result is given as “no binding (tested: antigen coated at 1 µg/ml)”. As for B3, the entry is “no binding (tested: antigen coated at 1 µg/ml)”; as for B4, “no binding (tested: antigen coated at 1 µg/ml)”.
